The numbers were not newly measured in article PMC8509676, “Residual Helicity at the Active Site of the Histidine Phosphocarrier, HPr, Modulates Binding Affinity to Its Natural Partners” (International Journal of Molecular Sciences, 2021), which cites them from elsewhere.

The target in the series is Rsd. Also on record: method as in PMID 24324139. To be noted: SPR; read-out: dissociation constant, Rsd-HPr in E. coli; cited from earlier work. (In general: In SPR one partner is held on a chip, and binding of the other changes the refractive index at the surface.)

B1: HPr^sc: intact histidine phosphocarrier protein HPr from Streptomyces coelicolor (O50515) (protein, UniProt O50515 2-93, looked up)
Phosphocarrier protein HPr: AERRVNVGWAEGLHARPASIFVRAATATGVPVTIAKADGSPVNAASMLAVLGLGAQGGEEIVLASDAEGAEAALERLAKLVAEGLEELPETV
On to B1, for which the Kd was 8.87 nM.
